No end group written: not given here.
Legend:
[1] = target: T1, 測定用抗原(1): PEG化GIP(1−15) (PEGylated N-terminal 15 amino acids of active GIP) (also: PEGylated, site not given here); experiment: ELISA, immobilised PEGylated peptide, hybridoma culture supernatant
T1 construct: also called GIP(1-15)
T1 peptide: YAEGTFISDYSIAMD

[2] = target: T2, 測定用抗原(2): PEG化GIP(3−15) (PEGylated N-terminal 13 amino acids of inactive GIP) (also: PEGylated, site not given here); experiment: as above
T2 construct: also called GIP(3-15)
T2 peptide: EGTFISDYSIAMD

GIP(3−42) (inactive GIP) = target: T3, GIP(3−42) (inactive GIP); experiment: sandwich ELISA: anti-total GIP monoclonal antibody as capture, biotinylated m1 at 1 ug/mL as detection
T3 construct: also called 非活性型GIP; 不活性型のGIP(3−42)
T3 peptide: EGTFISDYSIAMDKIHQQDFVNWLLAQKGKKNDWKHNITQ

GIP(1−42) (active GIP) = target: T4, GIP(1−42) (active GIP); experiment: sandwich ELISA: anti-total GIP monoclonal antibody as capture, biotinylated m1 at 1 ug/mL as detection, GIP at 8.2-2000 pg/mL
T4 construct: a Human (total) GIP ELISA kit was used; also called 活性型GIP; GIP(1-42)
T4 peptide: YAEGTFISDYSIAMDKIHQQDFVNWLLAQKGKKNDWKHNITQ

B1: ハイブリドーマ9B9H5−B9株から産生されるモノクローナル抗体 (anti-active GIP monoclonal antibody of hybridoma 9B9H5-B9) (antibody, V domains shown)
VH: QVQLQQPGAELVKPGASVKLSCKASGYTFTSFWMHWVIQRPGQGLEWIGEMNPSDGRTHFNEKFKTKATLTIDTSSNTAYMELNSLTSEDSAVYYCARRMEDWGQGTLVTVSA
VL: DIKMTQSPSSMYASLGERVTITCKASQDINSYLGWFQQKPGKSPKTLIYGANRLVDGVPSRFSGSGSGQDYSLTISSLEYDDMGIYYCLQYDEFPLTFGAGTKLELKR
notes: Mouse (BALB/c) hybridoma monoclonal antibody, purified on Protein A; also called 抗活性型GIP抗体; 抗活性型GIPモノクローナル抗体
Does B1 bind [1]?
Result: binds

Does B1 bind [2]?
Result: no binding

Does B1 bind (GIP(3−42) (inactive GIP))?
Result: no binding

Does B1 bind (GIP(1−42) (active GIP))?
Result: binds

— JP2019218309A (dated 2019)
